Measurements reported in the supplement of paper PMC9170038.

Tested on: MS2 coat protein
Assay: apparent KD of MS2 coat protein; higher = weaker reporter binding
Settings: Eterna round: R107
Outline: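 Illumina sequencing clusters were used for on-chip transcription of designed RNA switches. Titration with SNAP-549-labelled MS2 coat protein followed, in twofold steps from 0.7 or 1.5 nM to 3 µM in 100 mM Tris-HCl pH 7.5, 80 mM KCl, 4 mM MgCl2, without or with constant ligand. Apparent KD is each design's median of fits to normalised cluster binding curves.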

[1] = input ligand: theophylline 20 uM
[2] = input ligand: theophylline 2 mM
[3] = input ligand: tryptophan 2.4 mM

Sequence	apparent KD of MS2 coat protein (input ligand: arginine 13.2 mM)	apparent KD of MS2 coat protein (input ligand: none)	apparent KD of MS2 coat protein [1]	apparent KD of MS2 coat protein [2]	apparent KD of MS2 coat protein [3]
GGACUAACCAGAAGGAGCGACGCGCAGAAACUGCAAAUUCCUCCACACGAGGAUCACCCGUGUCAGGUAGGUCGCUGGUUAGUCG	16.5 nM	16.6 nM	23 nM	16.1 nM	18.2 nM
GGACUAACCAGAAGGAGCGGCACGCAGAAACUGCAAAAUCCUCCACACGAGGAUCACCCGUGUCAGGUAGGUCGCUGGUUAGUCG	45.8 nM	48.6 nM	55 nM	52.5 nM	48.4 nM
GGAGUAGAUGCGGCCGCCACUUUCUCAAGACACUACAUGAGGAUCACCCAUGUCCAUUCUACACUAAGGACCGGGCAUCCCAUGG [Alaa]	36.8 nM	–	182 nM	192 nM	–
GGAGUAGGAAACUAUUCCAAUCCUCGUGAACGAGGACCGGUACGGCCGCCACUCGAUAAUUAAUAACAUGAGGAUCACCCAUGUA [Ex Tryptophan A 21]	36.6 nM	–	80.4 nM	89 nM	–
GGAUAGGACACGGCCGCCACUAGCUAGGAUACUAGCAACAUUUCCUCACAAGAGGAUCACCCUUGUAGGACCGGGUGUCCUAUCG	84.9 nM	93.7 nM	115 nM	118 nM	139 nM
GGAUAGGACACGGCCGCCACUAGCUAGGAUACUAGCAACAUUUGGGUACAUGAGGAUCACCCAUGUAGGACCGGGUGUCCUAUCG	64.4 nM	63.7 nM	117 nM	85.5 nM	107 nM
GGAUCAGGAUCGGCCGCCACUGAUAGUGAUCCAACGACAUGAGGAUCACCCAUGUACAUUUUAAUCAGGACCGGGAUCAAGUUCC [Tryp B Ex t7]	40 nM	–	189 nM	327 nM	–
GGAUUACGAAAGUAGUCCUCAAGUUCGAGACGAGGACCGGUACGGCCGCCACUCGAACAUGAGGAUCACCCAUGUAGCGAAAGCU [Tryptophan A 22]	86.6 nM	195 nM	382 nM	425 nM	181 nM
GGCACAUAGUCGGCCGCCACUAGAAUAUAGUGGAAUAACAUGAGGAUCACCCAUGUAUUUGGGACUAGGACCGGGACUAUGUGCC [Bear]	33.2 nM	33.7 nM	41.9 nM	42.2 nM	20.2 nM
GGCACAUAGUCGGCCGCCACUAGUGGGAAAUGGGAGAACAUGAGGAUCACCCAUGUAUUAUAGCCUAGGACCGGGACUAUGUGCC [Mammoth]	145 nM	–	196 nM	259 nM	–
GGCCCACAUGAGGAUCACCCAUGUGUGGAUACCAGCCUCAUUUAGGGCCCUUGGCAGCCAGAUAGUAACAAGUCCGAAACACAGA [theeternabot_sameState_MS2_Theo_A_24]	26.2 nM	–	203 nM	–	144 nM
GGCCGGUGCGCUUUGAAGCGACGGCGUGAUACCAGAUGUAAGAGCGUCCCUUGGCAGCACGUUUACAUGAGGAUCACCCAUGUCU [Zaveusxe]	53.2 nM	–	256 nM	–	220 nM
GGGUAAGAUCCGGAUACCAGCGAACAUGAGGAUCACCCAUGUGACCUAAGAUAGGCUAAACGCCCUUGGCAGCCGAAAUAGCGUU [Same State Theophylline B GF 5]	24.9 nM	36.4 nM	43 nM	38.2 nM	39.5 nM
GGGUACAUCGCGGCCGCCACUCAUGUAAAUGCAUGAGGAUCACCCAUGUCGAUGGAGACAUCGGAGAGGACCGGGUGAUGUACCG	108 nM	259 nM	268 nM	313 nM	193 nM
GGGUACAUCGCGGCCGCCACUCGUGUAAAUACAUGAGGAUCACCCAUGUCGAUGGAGACAUCGGCGAGGACCGGGUGAUGUACCG	43.1 nM	47.5 nM	54.2 nM	53.5 nM	11.5 nM
GGUAACUCUACGGCCGCCACUGAACAUGAGGAUCACCCAUGUAAUGUUCAGAUUUUUUUUUUUUACAGGACCGGGUAGUGUUACC [Tryptophan B 4]	107 nM	–	276 nM	275 nM	–
GGUACAUGAGGAUCACCCAUGUAUUAGUGCCGAGGACCGGUACGGCCGCCACUCGCUUCACAUGAGGAUCACCCAUGUGUCACUG [SSTA DOUBLE!!! :-D #14]	23.6 nM	–	35.9 nM	36.1 nM	–
GGUAUGUAUUCGGAAACGAAUGCAUACCAACGAGGACCGGUACGGCCGCCACUCGCCGUCCUCAAACAUGAGGAUCACCCAUGUA [Ex Tryptophan A 7]	19.5 nM	–	30.5 nM	30.6 nM	–
GGUAUGUAUUCGGAAACGAAUGCAUACCAACGAGGACCGGUACGGCCGCCACUCGGGCCGUGAUCACAUGAGGAUCACCCAUGUA [Ex Tryptophan A 5]	29.8 nM	–	49.2 nM	42.3 nM	–

Sequence	apparent KD of MS2 coat protein (input ligand: arginine 13.2 mM)	apparent KD of MS2 coat protein (input ligand: none)	apparent KD of MS2 coat protein [1]	apparent KD of MS2 coat protein [2]	apparent KD of MS2 coat protein [3]
GGUCCCGUCGGAAGGAGCGACAUGAGGAUCACCCAUGUCUCCCGUUAUGGGAGUUCUUUAGGUCAGGUAGGUCGCCGGCGGGAGC [#1 Exclusion - Arginine B Attempt #15 (Inspired by Omei)]	52.4 nM	94.5 nM	123 nM	141 nM	74 nM
GGUGGACUUUCGGCCGCCACUGAGAGAGUCGUGUGAACAUGAGGAUCACCCAUGUAAUAUAUAUACAGGACCGGGAGGGUUGUCC [4.O]	20.6 nM	–	28.7 nM	25 nM	–
GGUGGCUGGAUUGAUACCAGCCACCACCGAUAGACCACAUGAGGAUCACCCAUGUUGGGUGGCCCUUGGCAGCAGUCCAGCUGCC [#1 Same State - Theophylline B Attempt #9 (HarryS)]	70.5 nM	388 nM	649 nM	828 nM	886 nM
GGUGGGACUUGUGAUACCAGCCCAGUUCUAAUCGAACUGCACAUGAGGAUCACCCAUGUCGGCCCUUGGCAGCAUGAGUAUUUAU [Esceesor]	146 nM	–	160 nM	–	326 nM
GGUUACUCUACGGCCGCCACUGGGCAUGUAAAUAACAUGAGGAUCACCCAUGUGGAAUAAAAUUACAGGACCGGGUAGUGUAACC [Tryptophan B 22]	105 nM	–	270 nM	352 nM	–
GUAGCUGAGUGUGAUACCAGAAACGACGUCCUUUAUCAUAACAUGAGGAUCACCCAUGUCUUCCCUUGGCAGCACUUUUCGGUCU [theeternabot_exclusion_MS2_Theo_B_24]	29.6 nM	–	53.6 nM	–	34.7 nM
GUAGGUCUCAUGGGUGGACCUACACUGGAAGGAGCGAGCGAAAGCUCAGGUAGGUCGCCAGAAACAUGAGGAUCACCCAUGUAAU [(A)''-(M)'-(A)'-(Arg1)-(Arg2)-(M1)-(M2)_Design1]	72.3 nM	360 nM	144 nM	288 nM	320 nM
GUCUGAGUCUGAAGGAGCGACAUGAGGAUCACCCAUGUCUCCCGUUAUGGGAGUUCCUUAGGUCAGGUAGGUCGCAGACUCAGAC [#1 Exclusion - Arginine B Attempt #26 (Inspired by Omei)]	60.9 nM	145 nM	139 nM	172 nM	108 nM
GUGUACAUGAGGAUCACCCAUGUCGAGUUACGAGGACCGGUACGGCCGCCACUCGGCGGCUCGACACGGAUAGCGGUGCGUUGCU [Exclusion - Tryptophan A]	18.2 nM	33.2 nM	40.8 nM	35.4 nM	129 nM
UAAAACAUGAGGAUCACCCAUGUAAUUGAUACCAGAGUGAUGAUCCUCCCUUGGCAGCAAAUAACGCAUUGAUUACAAUGCGAAA [Mat - Same State Theophlline A - Mod of Eli - D27]	27.9 nM	–	105 nM	–	35 nM
UAAACUACACAUGAGGAUCACCCAUGUGGCCGAGGACCGGUACGGCCGCCACUCGUGUGUUAAUAAUAGAACUGCAAGGUUCUGU [Enindidiso]	75.6 nM	–	228 nM	272 nM	–
UAAUAAAUAAAUCCAAGGUGAAGGUCAGAUACCAGCCAGAUAACUGGCCCUUGGCAGCUGAAUAAACUUGAGGAUCACCCAGGUA [TheoAS 27 #OpenEnded #MS2Late #AlternativeMS2]	45.4 nM	63.1 nM	135 nM	548 nM	55.6 nM
UAAUAAAUAAAUCCAAGGUGAAGGUCAGAUACCAGCCAGAUAACUGGCCCUUGGCAGCUGAAUAAGCUUGAGGAUCACCCAAGUA [TheoAS 26 #OpenEnded #MS2Late #AlternativeMS2]	27.5 nM	–	68.4 nM	275 nM	32.8 nM
UAAUAAAUAAAUCCAAGGUGUAGGUCAGAUACCAGCCAGAUAACUGGCCCUUGGCAGCUGAAUAAACCUGAGGAACACCCAGGUA [TheoAS 24 #OpenEnded #MS2Late #AlternativeMS2]	26.7 nM	31.6 nM	49.5 nM	197 nM	27.3 nM
UAAUAAUUCCUCAUGUCACGAGUGGCAUAACGAGGACCGGUACGGCCGCCACUCGAACAUGAGGAUCACCCAUGUAGCCACUCGA [M'-T'-T-MS2-T'' - Design 4]	56.7 nM	–	286 nM	474 nM	–
UACAGUACAACAGAUACCAGACAGUACUCUAGAUUGCAACAUGAGGAUCACCCAUGUAUAGUCCCUUGGCAGCUGUAAUGGGUGA [Theo B SS s1]	142 nM	–	195 nM	–	77.2 nM
UACAUGAGGAUCACCCAUGUAUAGAGGGAUACCAGUGUCAGUGAGCACCCUUGGCAGCCCGCGAACAAUGGGUGCGCUAUAUAGU [#20 Exclusion-TheophyllineA]	18.2 nM	–	46.8 nM	–	28 nM
UACAUGAGGAUCACCCAUGUAUUGCCGGUACGAGGACCGGUACGGCCGCCACUCGGAGCAUGAGGAUCACCCAUGUGCUGCUAUG [Same State Trypophan A GF 24]	35.5 nM	–	67.1 nM	83.7 nM	–
UAGGUGAUCUUCAACGGAAAACGUUGUGAUACCAGCCAACAAUACGGCCCUUGGCAGCACAUGAGGAUCACCCAUGUGUACACCG [Vetizaatdi]	25.6 nM	–	48.7 nM	–	30.6 nM
